Numbering of substitutions follows the chain as printed.

The source of these data is patent US20230383012A1 (Xencor, published 2023).

The labels stand for the following.
B1: XENP37561 (bispecific antibody)
chain 1: EVQLLESGGGLVQPGGSLRLSCAASGFTFSSYDMSWVRQAPGKRLEWVSTISSGGSFTHYPDSVKGRFTISRDNSKNTLYLQMNSLRAEDTAVYYCVRRSGDWYFDVWGAGTTVTVSSASTKGPSVFPLAPSSKSTSGGTAALGCLVKDYFPEPVTVSWNSGALTSGVHTFPAVLQSSGLYSLSSVVTVPSSSLGTQTYICNVNHKPSDTKVDKKVEPKSCDKTHTCPPCPAPPVAGPSVFLFPPKPKDTLMISRTPEVTCVVVDVKHEDPEVKFNWYVDGVEVHNAKTKPREEEYNSTYRVVSVLTVLHQDWLNGKEYKCKVSNKALPAPIEKTISKAKGQPREPQVYTLPPSREEMTKNQVSLTCDVSGFYPSDIAVEWESDGQPENNYKTTPPVLDSDGSFFLYSKLTVDKSRWEQGDVFSCSVMHEALHNHYTQKSLSLSPGK
chain 2: not shown
chain 3: EIVLTQSPGTLSLSPGERATLSCRVSSSISSSNLHWYQQKPGQSPRPLIYGTSNLASGVPVRFSGSGSGTDYTLTISRLEPEDFAVYYCQQWSSYPLYTFGGGTKVEIKRTVAAPSVFIFPPSDEQLKSGTASVVCLLNNFYPREAKVQWKVDNALQSGNSQESVTEQDSKDSTYSLSSTLTLSKADYEKHKVYACEVTHQGLSSPVTKSFNRGEC
B2: XENP37560 (bispecific antibody)
chain 1: B1 chain 1
chain 2: not shown
chain 3: B1 chain 3
B3: XENP37261 (bispecific antibody)
chain 1: B1 chain 1
chain 2: not shown
chain 3: B1 chain 3
B4: XENP37559 (bispecific antibody)
chain 1: B1 chain 1
chain 2: not shown
chain 3: B1 chain 3
B5: XENP37412 (bispecific antibody)
chain 1: B1 chain 1
chain 2: not shown
chain 3: B1 chain 3
B6: XENP36233 (bispecific antibody)
chain 1: B1 chain 1
chain 2: not shown
chain 3: B1 chain 3
B7: XENP39368 (bispecific antibody)
heavy: B1 chain 1 with V97A, G101L
scFv-Fc: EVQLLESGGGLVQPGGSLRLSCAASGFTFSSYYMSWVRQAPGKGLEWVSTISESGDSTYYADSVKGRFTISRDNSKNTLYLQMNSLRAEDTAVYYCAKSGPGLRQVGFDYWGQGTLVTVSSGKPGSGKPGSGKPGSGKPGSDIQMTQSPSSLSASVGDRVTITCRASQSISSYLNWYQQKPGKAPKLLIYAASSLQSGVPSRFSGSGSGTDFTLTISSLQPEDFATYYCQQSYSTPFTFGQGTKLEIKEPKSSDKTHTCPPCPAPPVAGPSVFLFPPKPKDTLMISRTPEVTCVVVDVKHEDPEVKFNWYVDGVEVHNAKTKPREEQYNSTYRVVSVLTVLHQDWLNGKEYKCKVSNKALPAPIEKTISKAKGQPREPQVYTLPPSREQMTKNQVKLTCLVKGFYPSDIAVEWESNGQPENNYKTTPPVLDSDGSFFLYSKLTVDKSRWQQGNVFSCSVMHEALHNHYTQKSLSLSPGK
light: B1 chain 3 with S30Q, S32T, N54V, S57T
B8: XENP39365 (bispecific antibody)
heavy: B1 chain 1 with V97A, G101L
scFv-Fc: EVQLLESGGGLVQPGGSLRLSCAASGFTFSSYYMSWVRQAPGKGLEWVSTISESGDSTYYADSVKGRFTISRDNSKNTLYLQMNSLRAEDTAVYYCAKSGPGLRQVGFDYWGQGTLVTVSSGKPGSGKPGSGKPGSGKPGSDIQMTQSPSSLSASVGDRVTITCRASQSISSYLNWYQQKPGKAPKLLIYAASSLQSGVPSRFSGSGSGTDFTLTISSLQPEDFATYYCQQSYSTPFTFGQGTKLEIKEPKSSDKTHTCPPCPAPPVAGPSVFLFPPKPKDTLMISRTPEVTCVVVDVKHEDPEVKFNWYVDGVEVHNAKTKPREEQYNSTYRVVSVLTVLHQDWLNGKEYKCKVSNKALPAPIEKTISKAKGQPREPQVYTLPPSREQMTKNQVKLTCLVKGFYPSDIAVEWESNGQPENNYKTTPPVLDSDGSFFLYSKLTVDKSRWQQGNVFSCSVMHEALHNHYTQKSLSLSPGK
light: B1 chain 3 with S27L, S30Q, S53N, N54L
B9: PDL1 binding domain 2G4_H1.12_L1.68 (Fab, V domains shown)
VH: EVQLLESGGGLVQPGGSLRLSCAASGFTFSVYDMSWVRQAPGKRLEWVSTISSGGSFTHYPDSVKGRFTISRDNSKNTLYLQMNSLRAEDTAVYYCVRRSLDWYFDVWGAGTTVTVSS
VL: EIVLTQSPGTLSLSPGERATLSCRVSSSIQSTNLHWYQQKPGQSPRPLIYGTSNLASGVPVRFSGSGSGTDYTLTISRLEPEDFAVYYCQQWSSYPLYTFGGGTKVEIK
B10: PDL1 binding domain 2G4_H1.12_L1.14 (Fab, V domains shown)
VH: B9 VH
VL: B9 VL with T32S
notes: also called as in XENP40409 and XENP40706
B11: PDL1 binding domain 2G4_H1.12_L1.66 (Fab, V domains shown)
VH: B9 VH
VL: B9 VL with S57T
B12: XENP38514 (bispecific antibody)
heavy: B1 chain 1 with S31V, G101L
scFv-Fc: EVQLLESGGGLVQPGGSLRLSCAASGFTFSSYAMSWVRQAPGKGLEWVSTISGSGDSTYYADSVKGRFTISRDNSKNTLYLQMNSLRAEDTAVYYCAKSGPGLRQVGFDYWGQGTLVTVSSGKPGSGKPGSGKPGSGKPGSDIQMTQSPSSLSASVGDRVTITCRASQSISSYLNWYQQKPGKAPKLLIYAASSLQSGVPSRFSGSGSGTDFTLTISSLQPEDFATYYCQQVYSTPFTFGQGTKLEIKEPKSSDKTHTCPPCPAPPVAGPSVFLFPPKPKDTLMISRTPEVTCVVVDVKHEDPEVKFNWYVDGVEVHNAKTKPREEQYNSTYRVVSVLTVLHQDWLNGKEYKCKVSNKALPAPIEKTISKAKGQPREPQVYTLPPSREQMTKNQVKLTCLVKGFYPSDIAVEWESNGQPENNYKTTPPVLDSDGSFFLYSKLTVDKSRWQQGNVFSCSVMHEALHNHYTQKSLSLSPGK
light: B1 chain 3 with S30Q, S32T, N54V, S57T
notes: also called αPDL1×αCD28 bsAb XENP38514

For the first experiment, the target named is T1, human CD28 antigen (human, UniProt P10747 19-152).
T1 construct: also called his-tagged CD28 antigen
Briefly: CD28 binding affinity; Octet per paragraph 712, scFv in 1+1 Fab-scFv-Fc PDL1×CD28 bsAb. Background: In BLI a coated tip is dipped into the sample, and binding shifts an interference pattern.
With B1, the dissociation constant Kd (as a rule, the equilibrium constant for the complex coming apart) turned out to be 37 nM.
Take B2: binding was put at a Kd of 96 nM.
With B3, binding was characterised by a dissociation constant (Kd) of 36 nM.
In the case of B4, the dissociation constant Kd stood at 180 nM.
In the case of B5, binding was put at a Kd of 286 nM.
The same measure, in the same setting: the same measure for B6: 240 nM.

A further experiment has as its target T2, human PDL1 (human, UniProt Q9NZQ7 19-238).
T2 construct: his-tagged in the Carterra assay; also called PDL1 antigen
Nature of the experiment: descriptor in the SEB-stimulated PBMC example.
As for B7, the binding result is given as “binds”.
The same measure, in the same setting: under B8 stands “binds”.

A further experiment concerns the target T2, human PDL1. Nature of the experiment: PDL1 binding affinity; Biacore per paragraph 695, in PDL1×CD28 bsAb.
B9 yielded a Kd of 0.8 nM.
In turn, B10 displayed a Kd of 0.42 nM.
Same read-out and setting: under B11 stands 0.86 nM; under B12, 0.17 nM.
